The target in experiment [1] is recombinant Api m 2 (rApi m 2), venom hyaluronidase (honeybee, UniProt Q08169 34-382). Briefly: ELISA, immobilized rApi m 2, purified nanobody.
Protocol: (A) Binding to immobilized Api m 1 was detected using anti-V5 antibody. […] (B) Binding to immobilized rApi m 2 was detected using mouse anti-penta-His and AP-conjugated rabbit anti-mouse IgG antibody.
The immunoreactivity of expressed nanobodies was assessed by ELISA. Briefly, micro well plates were coated with 10 μg/ml nApi m 1 or rApi m 2 diluted in PBS at 4° C. o.n. After blocking for 1 h with PBS containing 4% skimmed milk powder, purified nanobodies were incubated in the wells for 2-3 h at rt. shaking. After washing, nanobodies were detected with rabbit anti-V5 antibody (antibodies-online) and AP-conjugated goat anti-rabbit IgG antibody (Sigma) or with mouse anti-penta-His and AP-conjugated rabbit anti-mouse IgG antibody (Sigma).
Experiment [2] deals with T1, native Api m 1 (nApi m 1), phospholipase A2 from honeybee venom (Apis mellifera, UniProt P00630 34-167).
T1 construct: also called PLA2; chain A
The experiment in a line: monoclonal phage ELISA (phage-displayed nanobody) on immobilized Api m 1 or AM1-4 IgG/Api m 1 complexes; positive clones. For orientation: In an ELISA, binding on a coated surface is turned into a signal by an enzyme label.
Protocol: Enrichment of the nanobody phage library was assessed in ELISA by measuring the immunoreactivity of polyclonal phages (A). Binding of phages to immobilized Api m 1 or AM1-4 IgG/Api m 1 complexes was detected using a biotinylated anti-M13 antibody. Data are mean±s.d. of duplicates. Immunoreactivity of monoclonal phages was analyzed in ELISA as above (B). Data are single measurements.
After two rounds of selection the polyclonal phages were assessed for binding to Api m 1 by ELISA. Briefly, micro well plates were coated with 2 μg/ml Api m 1 or 10 μg/ml AM1-4IgG diluted in PBS at 4° C. o.n. After blocking for 30 min with TBS containing 4% skimmed milk powder, the wells were incubated with 2 μg/ml Api m 1 for 1 h at room temperature. After formation of AM1-4 IgG/Api m 1 complexes, polyclonal phages (1×10¹² phages/ml) were incubated in the wells for 2 h at room temperature. After washing, bound phages were detected with biotinylated anti-M13 antibody (Invitrogen) and AP-conjugated ExtrAvidin. For assessment of monoclonal phages, E. coli ER2738 infected with polyclonal phages were plated and individual colonies were picked and expanded for monoclonal phage propagation. Monoclonal phages were assessed by ELISA as described above.

Experiment [3] has as its target T1, native Api m 1 (nApi m 1), ….
Experiment [4] has the same target. Briefly: BLI, compared with AM1-1 IgG1.
Experiment [5] has the same target. The experiment in a line: cell-based or functional assay.

T1 sequence (P00630 34-167): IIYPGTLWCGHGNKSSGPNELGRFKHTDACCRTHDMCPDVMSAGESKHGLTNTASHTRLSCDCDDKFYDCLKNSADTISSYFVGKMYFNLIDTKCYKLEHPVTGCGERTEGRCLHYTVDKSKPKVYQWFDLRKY
Chain of recombinant Api m 2 (rApi m 2), venom hyaluronidase (Q08169 34-382): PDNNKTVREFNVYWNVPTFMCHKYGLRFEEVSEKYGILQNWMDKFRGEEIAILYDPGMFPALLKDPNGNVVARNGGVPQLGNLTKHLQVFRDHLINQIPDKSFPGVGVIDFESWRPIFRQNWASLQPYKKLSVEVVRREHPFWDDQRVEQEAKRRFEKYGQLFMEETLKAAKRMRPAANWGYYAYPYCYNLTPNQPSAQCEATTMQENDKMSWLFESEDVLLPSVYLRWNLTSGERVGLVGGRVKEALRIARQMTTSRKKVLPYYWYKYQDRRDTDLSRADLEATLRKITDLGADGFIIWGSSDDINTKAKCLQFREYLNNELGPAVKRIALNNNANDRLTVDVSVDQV

B1: nanobody AM2-O2 (VHH, not shown: small tags and cut ends)
VHH: EVQLQESGGGLVQAGGSLRLSCAASGDTICISAMGWYRQAPGKERELVAVITSADSTNYADSVKGRFTISRAGAKNTLYLQMNSLKPEDTAVYYCNAHTPKYSDFEVTCYEYDYWGQGTLVSVS
For B1, the binding result in experiment [1] was “binds”.

B2: nanobody AM1-21 (VHH, not shown: small tags and cut ends)
VHH: QVQLVESGGGLVQAGGSLRLSCAASGFTLDYYAIGWFRQAPGKEREGVSCITSYDDSTYYTDSVKGRFTISRDNAKNTVYLQMNSLKPEDTAVYYCAAVGTWYLVNWWAPSEYDYWGQGTQVTVS
notes: also called A7
For B2, the binding result in experiment [2] is listed as “binds”.

B3: AM1-21 IgG1 (nanobody-based human IgG1) (Fc fusion)
chain: B2 VHH
The Kd is the free concentration of one partner at which half of the binding sites on the other are occupied at equilibrium, for simple one-to-one binding. Low readings indicate higher affinity, high ones lower affinity. The molecule B3 displayed a Kd in experiment [3] of 0.0153 nM. The “fold higher affinity than AM1-1 IgG1” value in experiment [4] is approximately 100 fold.

B4: AM1-1 IgG1 (monospecific nanobody-based human IgG1) (Fc fusion)
chain: QVQLVETGGGLVQAGGSLRLSCATSGTIFSRATMAWYRQTPGKQREWVTTITTSGNTNYADSVKGRFTISRDNAESTLYLQMNSLKPEDTAVYYCNAQFLSSRTNYWGKGTQVTVS
In experiment [3], B4 came in with a Kd of 1.94 nM. Further, in experiment [5], the “inhibition of basophil activation (CD63 positive), Patient 1” value (shortened to “inhibition … Patient 1”) was determined as 16% and the “inhibition of basophil activation (CD63 positive), Patient 2” value (“inhibition … Patient 2” below) was found to be 7%.

B5: mix of the two monospecific nanobody-based human IgG1 (AM1-1 IgG1 and AM1-4 IgG1) (other)
chain 1: B4 chain
chain 2: QVQLVESGGGLVQAGGSLRLSCAASGRTFSRYAMGWFRQAPGKEREFVSAISGSGGFTDYADSVKGRFTISRDNAKSTVYLRMSSLKPEDTAVYYCAAEGSRGSSTRLDARGTYDYWGQGTQVTVS
For B5, in experiment [5], the “inhibition … Patient 1” value was 69% and the “inhibition … Patient 2” value was found to be 38%.

B6: nanobody AM2-C2 (VHH, not shown: small tags and cut ends)
VHH: EVQLQESGGGLVQPGGSLRLSCAASGTTINIGAARWYRQAPGKQREVVAGISFGGATNYIDSVKGRFTISRGDALNTWYLQMNNLKPEDTAVYYCNARGEWGQGTQVAVS
As to B6, the binding result in experiment [1] is given as “binds”.

B7: nanobody AM1-22 (VHH, not shown: small tags and cut ends)
VHH: QVQLVESGGGLVQAGGSLRLSCAASGSIFNWAWYRQFPGKQREWVATITSGGNTNLADSVKGRFTISLDNAKNTMYLQMNSLKPEDTAVYYCNSARFRNRDAIWGQGTQVTVS
notes: also called B4
For the molecule B7, the binding result in experiment [2] is “binds”.

B8: AM1-22 IgG1 (nanobody-based human IgG1) (Fc fusion)
chain: B7 VHH
As for B8, the Kd in experiment [3] is less than 0.001 nM. Also, the “fold higher affinity than AM1-1 IgG1” value in experiment [4] was approximately 100 fold.

B9: AM1-4 IgG1 (monospecific nanobody-based human IgG1) (Fc fusion)
chain: B5 chain 2
B9 came in with a Kd in experiment [3] of 0.3 nM. In experiment [5], the “inhibition … Patient 1” value amounted to 44% and the “inhibition … Patient 2” value is 23%.

The values are drawn from US20250206812A1 (AARHUS UNIVERSITET, published 2025).
